Measured values: patent publication US11813311B2, “Treatment and prevention of metabolic diseases” (Singapore Health Services PTE LTD., priority 2019, dated 2023)

B1: X209: mouse anti-mouse IL-11Rα IgG (IgG1κ), neutralising; VH SEQ ID NO:24, VL SEQ ID NO:25 (antibody, V domains shown)
VH: QVQLQQPGAELVRPGSSVKLSCKASGYTFTNYWMHWLKQRPVQGLEWIGNIGPSDSKTHYNQKFKDKATLTVDKSSSTAYMQLNSLTSEDSAVYYCARGDYVLFTYWGQGTLVTVSA
VL: DIVLTQSPATLSLSPGERATLSCRASQSISNNLHWYQQKSHEAPRLLIKYASQSISGIPARFSGSGSGTDFTLSFSSLETEDFAVYFCQQSYSWPLTFGQGTKLEIK
modifications: Enx209 VH; Enx209 VL
B2: X203: mouse anti-mouse IL-11 IgG (IgG1κ), neutralising; VH SEQ ID NO:22, VL SEQ ID NO:23 (antibody, V domains shown)
VH: EVQLQQSGPELVKPGASVKIPCKASGYTFTDYNMDWVKQSHGKSLEWIGDINPHNGGPIYNQKFTGKATLTVDKSSSTAYMELRSLTSEDTAVYYCARGELGHWYFDVWGTGTTVTVSS
VL: DIVLTQSPASLAVSLGQRATISCRASKSVSTSGYSYIHWYQQKPGQPPKLLIYLASNLDSGVPARFSGSGSGTDFTLNIHPVEEEDAATYYCQHSRDLPPTFGGGTKLEIK
modifications: Enx203 VH; Enx203 VL

Columns and labels:
HSCs = test: HSC-to-myofibroblast transformation (ACTA2/Collagen I, Operetta); type: cell-based, human; settings: antibody 2 μg/ml, 24 h
Description: Cells (atrial fibroblasts, HSCs and hepatocytes) were grown and maintained at 37° C. and 5% CO2. The growth medium was renewed every 2-3 days and cells were passaged at 80-90% confluence using standard trypsinization techniques. All the experiments were carried out at low cell passage (P1-P2). Cells were serum-starved for 16 h prior to stimulations. Stimulated cells were compared to unstimulated cells that have been grown for the same duration under the same conditions (serum-free media), but without the stimuli.
HSCs (5300, ScienCell) were cultured in stellate cells complete media (5301, ScienCell) on poly-L-lysine-coated plates (2 μg/cm2, 0403, ScienCell).
The Operetta assay was performed mostly as described previously 11 with minor modifications described here: HSCs or hepatocytes were seeded in 96-well black CellCarrier plates (PerkinElmer) at a density of 5×10^3 cells per well. Following experimental conditions, cells were fixed in 4% paraformaldehyde (PFA, 28908, Thermo Fisher), permeabilized with 0.1% Triton X-100 (Sigma) and non-specific sites were blocked with 0.5% BSA and 0.1% Tween-20 in PBS. Cells were incubated overnight (4° C.) with primary antibodies (1:500), followed by incubation with the appropriate AlexaFluor 488 secondary antibodies (1:1000). Rhodamine Phalloidin staining (1:1000, R415, Thermo Fisher) was performed by overnight incubation (4° C.). […]

PSCs = test: Pancreatic stellate cell (PSC) activation in vitro; type: cell-based; settings: 24 hours
Description: FIGS. 48A and 48B. Box plots and images showing activation of pancreatic stellate cells (PSCs) to a αSMA-positive, collagen-expressing fibrogenic phenotype. (A) Quantification of high-content imaging assays for the percentage of ACTA2-positive cells and collagen I intensity/area following in vitro stimulation of PSCs for 24 hours with the indicated factors, in the presence or absence of neutralising anti-IL-11 RA antibody or IgG isotype control antibody. (B) Representative images for high-content imaging analysis of collagen I intensity/area following in vitro stimulation of PSCs for 24 hours with the indicated factors, in the presence of neutralising anti-IL-11 RA antibody or IgG isotype control antibody.

MCD-fed db/db mice = test: MCD-fed db/db mouse NASH model; type: in vivo
Description: FIGS. 20A to 20N. Therapeutic targeting of Il-11 inhibits and reverses NASH pathologies in preclinical models. (A) Schematic showing therapeutic use of X203 and X209 (10 mg/kg, biweekly) in HFMCD-fed mice for experiments shown in (B-E). X203, X209 or IgG isotype control were administered from week 6 to 10 of HFMCD diet. (B) Representative liver histological images (Masson's Trichrome staining; scale bars, 100 μm), (C) relative liver hydroxyproline content, (D) relative liver pro-inflammatory mRNA expression levels (n≥6/group) and (E) serum ALT levels. (F) Western blots of hepatic Erk activation status. (G) Schematic of X203 or IgG administration to MCD-fed db/db mice for experiments shown in H-N. Western blots of hepatic (H) Il-11 and Gapdh, (I) p-Erk and Erk. (J) Representative Masson's Trichrome images of liver from X203 or IgG-treated MCD-fed db/db mice (scale bars, 100 μm). The levels of (K) hepatic triglyceride, (L) relative liver hydroxyproline, (M) serum ALT, and (N) mRNA expression of liver pro-inflammatory markers (n≥5/group). (C-E,K-N) Data are shown as box-and-whisker with median (middle line), 25th-75th percentiles (box) and min-max percentiles (whiskers); two-tailed, Tukey-corrected Student's t-test. FC: fold change; NC: normal chow; HFMCD: high fat methionine- and choline-deficient; MCD: methionine- and choline-deficient.
Male BKS.Cg-Dock7m+/+LeprdbJ (db/db) mice on C57BL/6J genetic background were 12 weeks of age and at the hepatic steatosis stage when they were fed methionine- and choline-deficient diet (MCD, A02082002BRi, Research Diets) for 8 weeks; control mice were of the same genotype. Durations of diet and antibody therapies are described.
Mice were injected intraperitoneally with either antagonist anti-IL-11 antibody, antagonist anti-IL11RA antibody or an identical amount of IgG isotype control for the treatment durations outlined in the figures.

[1] = system: mice with UUO-induced kidney injury; test: Weight loss after UUO-induced acute kidney injury; type: in vivo, mouse; settings: 20 mg/kg 2×/week from day 4 post-UUO
Description: In further experiments, mice were subjected to unilateral ureter obstruction (UUO)-induced acute kidney injury. UUO surgeries were carried out on 12-week old mice. Briefly, mice were anesthetized by IP injection of ketamine (100 mg/kg)/xylazine (10 mg/kg) and full depth of anaesthesia was accessed with the pedal reflex. Mice were then shaved on the left side of the abdomen. A vertical incision was made through the skin with a scalpel, a second incision was made through the peritoneum to reveal the kidney. Using forceps, the kidney was brought to the surface and the ureter was tied with surgical silk, twice, below the kidney. The ligated kidney was placed gently back into its correct anatomical position and sterile saline was added to replenish loss of fluid. The incisions were then sutured. Animals were post-operatively treated with antibiotic enrofloxacin (15 mg/kg, SC) and analgesic buprenorphine (0.1 mg/kg, SC) for three consecutive days. Mice were sacrificed 10 days post-ligation. Mice were intraperitoneally injected with 20 mg/kg (2×/week) of anti-IL-11 antibody or identical concentration of IgG isotype control from day 4 post-surgery until the mice were sacrificed.

Molecule	HSC transformation downstream of all factors, including IL-11 (HSCs)	PSC activation irrespective of the stimulus (TGFβ1, IL-11, bFGF, CTGF, PDGF or ET-1) (PSCs)	ALT levels (MCD-fed db/db mice)	hepatic Erk activation (MCD-fed db/db mice)	hepatic fibrosis (MCD-fed db/db mice)	hepatic inflammation (MCD-fed db/db mice)	hepatic steatosis (MCD-fed db/db mice)	regain of body weight [1]	time to return to normal weight [1] [days]
B1	abolished	inhibited	–	–	–	–	–	–	–
B2	–	–	lowering	inhibited	reduced	reduced	reduced	regained their body weight more quickly than those receiving IgG control	≤ 4
